First the molecules themselves.
B1: IFT52/70 complex (SNAP-IFT52/SNAP-IFT70) (complex)
chain 1: MEKELRSTILFNAYKKEVFTTNTGYKSLQKRLRSNWKIQSLKDEITSEKLIGVKLWITAGPREKFTAAEFEVLKKYLDSGGDILVMLGEGGESRFDTNINFLLEEYGIMVNNDAVVRNVYYKYFHPKEALVSDGVLNREISRAAGKAVPGVIDEENSGNNAQALTFVYPFGATLSVMKPAVAVLSTGSVCFPLNRPILAFYHSKNQGFGKLAVLGSCHMFSDQYLDKEENSKIMDVVFQWLTTGDIHLNQIDAEDPEISDYTMVPDTATLSEQLRVCLQEGDENPRDFTTLFDLSIYQLDTTCLPKVIKAHEELNVKHEPLQLVQPQFEMPLPALQPAVFPPSFRELPPPPLELFDLDETFSSEKARLAQITNKCTDEDLEFYVRKCGDILGVTSKLPKDQQDAKHILEHIFFQVVEFKKLNQEAH
chain 2: MAGLSGAQIPDGEFTAVVYRLIRNARYAEAVQLLGGELQRSPRSRAGLSLLGYCYYRLQEFALAAECYEQLGQLHPELEQYRLYQAQALYKACLYAEATRVAFLLLDNPAYHSRVLRLQAAIKYSEGDLPGSRSLVEQLPSREGGEESGGENETDGQINLGCLLYKEGQYEAACSKFFAALQASGYQPDLSYNLALAYYSSRQYASALKHIAEIIERGIRQHPELGVGMTTEGIDVRSVGNTLVLHQTALVEAFNLKAAIEYQLRNYEAAQEALTDMPPRAEEELDPVTLHNQALMNMDARPTEGFEKLQFLLQQNPFPPETFGNLLLLYCKYEYFDLAADVLAENAHLIYKFLTPYLYDFLDAVITCQTAPEEAFIKLDGLAGMLTEVLRKLTIQVQEARHNRDDEAIKKAVNEYDETMEKYIPVLMAQAKIYWNLENYPMVEKIFRKSVEFCNDHDVWKLNVAHVLFMQENKYKEAIGFYEPIVKKHYDNILNVSAIVLANLCVSYIMTSQNEEAEELMRKIEKEEEQLSYDDPDKKMYHLCIVNLVIGTLYCAKGNYDFGISRVIKSLEPYNKKLGTDTWYYAKRCFLSLLENMSKHTIMLRDSVIQECVQFLEHCELHGRNIPAVIEQPLEEERMHVGKNTVTYESRQLKALIYEIIGWNI
modifications: SNAP-Surface Alexa Fluor 647 on the SNAP tag | SNAP-Surface Alexa Fluor 647 on the SNAP tag
B2: GFP-HSET (full-length N-terminal hexa-histidine-tagged GFP-HSET) (natural protein, human, UniProt Q9BW19 1-673, looked up)
chain: MDPQRSPLLEVKGNIELKRPLIKAPSQLPLSGSRLKRRPDQMEDGLEPEKKRTRGLGATTKITTSHPRVPSLTTVPQTQGQTTAQKVSKKTGPRCSTAIATGLKNQKPVPAVPVQKSGTSGVPPMAGGKKPSKRPAWDLKGQLCDLNAELKRCRERTQTLDQENQQLQDQLRDAQQQVKALGTERTTLEGHLAKVQAQAEQGQQELKNLRACVLELEERLSTQEGLVQELQKKQVELQEERRGLMSQLEEKERRLQTSEAALSSSQAEVASLRQETVAQAALLTEREERLHGLEMERRRLHNQLQELKGNIRVFCRVRPVLPGEPTPPPGLLLFPSGPGGPSDPPTRLSLSRSDERRGTLSGAPAPPTRHDFSFDRVFPPGSGQDEVFEEIAMLVQSALDGYPVCIFAYGQTGSGKTFTMEGGPGGDPQLEGLIPRALRHLFSVAQELSGQGWTYSFVASYVEIYNETVRDLLATGTRKGQGGECEIRRAGPGSEELTVTNARYVPVSCEKEVDALLHLARQNRAVARTAQNERSSRSHSVFQLQISGEHSSRGLQCGAPLSLVDLAGSERLDPGLALGPGERERLRETQAINSSLSTLGLVIMALSNKESHVPYRNSKLTYLLQNSLGGSAKMLMFVNISPLEENVSESLNSLRFASKVNQCVIGTAQANRK
notes: HSET (KIFC1), human mitotic kinesin-14, full length; Dimer by mass photometry (measured 232 ± 34 kDa, expected 210 kDa for the GFP-HSET dimer); also called KIFC1; kinesin-14; source: Sf9 insect cells, baculovirus, purified (Ni-NTA); not shown: GFP, N-terminal, kept

Series [1] deals with B2. Put plainly: mass photometry; in solution; pre-incubated 30 min at 30 °C (1.2 µM GFP-HSET, 2.4 µM IFT52/70) in 20 mM Na-Hepes pH 7.2, 150 mM NaCl, 2 mM MgCl2, 10% glycerol, 5 mM β-mercaptoethanol; measured at 2.5 nM GFP-HSET and 5 nM IFT52/70, alone or mixed, 25 °C. The conditions noted are these: both partners purified.
For series [2], the target named is B2. Put plainly: cell-based or functional assay.
Series [3] deals with the molecule itself. Briefly: mass photometry; in solution; pre-incubated 30 min at 30 °C (1.2 µM GFP-HSET, 2.4 µM IFT52/70) in 20 mM Na-Hepes pH 7.2, 150 mM NaCl, 2 mM MgCl2, 10% glycerol, 5 mM β-mercaptoethanol; measured at 2.5 nM GFP-HSET and 5 nM IFT52/70, alone or mixed, 25 °C.

One may read the stoichiometry N as a count of units in the complex or per binding partner.

For B1, the “stoichiometry N” value in series [1] was 2 IFT52/70 dimers per GFP-HSET dimer. Further, in series [2], the “GFP-HSET (5 nM) fluorescence at microtubule minus ends relative to the lattice, with IFT52/70 (10 nM) (1.38 versus 2.34)” value is 1.7 fold.
For B2, the “stoichiometry N” value in series [3] stood at 2.
